The results in this text go back to article PMC4110039.

Experiment [1] deals with HIV-1 JR2 F673L mutant Env (trimer of gp120-gp41 heterodimers) on pseudotyped virus (HIV-1 (isolate JR2)).
For experiment [2], the target named is HIV-1 JR2 wild type Env (trimer of gp120-gp41 heterodimers) on pseudotyped virus (HIV-1 (isolate JR2)).

With C34 peptide, the IC50 of neutralization of pseudotyped virus (single cycle entry assay, TZM-bl cells); C34 acts on the NHR of gp41 amounted to 0.9 µg/mL in experiment [1] and 1.2 µg/mL in experiment [2].
